Data: PMC9629889

Assays:
Test in all cases: MST; Monolith NT.115; TaMTB labelled with the protein labelling kit RED in PBS, ligand (NIb) in a concentration gradient; Kd-Fit; three repeats
[1] = molecular target: TaMTB(SNP176^C) protein purified from E. coli (Triticum aestivum)
[2] = molecular target: TaMTB(SNP176^A) protein purified from E. coli (Triticum aestivum)
[3] = molecular target: TaMTB-His (from E. coli) (Triticum aestivum (cv. Yangmai158 cDNA))

B1: NIb protein purified from E. coli (natural protein)
chain: ASDILSKINNSILGFGSDLKGQLVQPITPALRTRFEALFGGGSFELVGTMNKGLIDKHTIVGENDNVHDFMREHPTFAWLQGFMDEYAPSVLNYTAYYKDLCKYNRKKHQLSFNPHELRSATAGMIRMLEDAGLTQGDVRTPQQVVSDMQWNTSAGPSYQGKKRDVCAHLSEQEVLHLAETSRQQFLACNSIGIWNGSLKAELRTIEKVEAEKTRVFTASPITSLFAMKFYVDDFNKKFYATNLKAPHTVGINKFSRGWEMLHDKLNRPGWLHGSGDGSRFDSSIDPFFFDIIKEIRKHFLPVEHHRAIDLIYDEILNTNICLANGMVIRKNVGNNSGQPSTVVDNTLVLMVSFLYAYIHKTGDHMLKKLNDRFVFVCNGDDNKFAISPEFDAEFGHDFSPELTELGLTYEFDDITDDICANPYMSLTMVRTPFGIGFSLPVERIVAIMQWAKKGGVLHSYLAGISAIYESFNTPKLFKSVYAYLLWLTEEHGSDILAAMTGTATALPIPSMLDVYRLHYGDSSIELQ
modifications: not checked
Q: With B1 as the binder, how does the Kd [1] read?
A: 110 nM

Q: What about the Kd [2] of the same binder?
A: 730 nM

Q: And the Kd [3]?
A: 1120 nM
